These results are taken from patent US20180280412A1.

The target in this assay is Ub-AMC substrate.

purified 26S proteasome (enzyme): the DUBs activity on Ub-AMC substrate stood at 3 fold.
